Laboratory results as given in patent US10738094B2, “Peptides and combination of peptides for use in immunotherapy against ovarian cancer and other cancers” (immatics biotechnologies GmbH, priority 2015, dated 2020).

Biological target: HLA-A*02:01 (Homo sapiens, UniProt P04439, D140Y/D185E/D98H/E176V/E277Q/G131W/G231S/I119V/I121R/I166T/I218V/L300P/L318F/N151K/N90K/P208A/P217A/Q86G/Q94H/R138H/R169H/T345S)
Experiment: MHC binding assay (UV-ligand exchange, beta2m ELISA)
Details: binding to HLA-A*02:01 ranged by peptide exchange yield (UV-ligand exchange, β2m ELISA)
Outline: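 Stabilised complexes were quantified via their β2m light chain: 100-fold-diluted monomers bound to streptavidin plates, then HRP anti-β2m at 2 ug/ml for 1 h at 37° C., TMB read at 450 nm. The value is the yield of UV-induced exchange of a photocleavable peptide for the candidate.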

| Substance | Peptide exchange |
| --- | --- |
| 597 (KLLEGQVIQL; listed as Homo sapiens) [compound 597] | “+++” (≥50 = +++) |
| 355 (SIQQSIERLLV; listed as Homo sapiens) [compound 355] | “++” (≥20% = ++) |
| 124 (ALYETELADA; listed as Homo sapiens) [compound 124] | “++” (≥20% = ++) |
| 369 (GLFPEHLIDV; listed as Homo sapiens) [compound 369] | “+++” (≥50 = +++) |
| 567 (SLLPLDDIVRV; listed as Homo sapiens) [compound 567] | “+++” (≥50 = +++) |
| 514 (ILVDWLVQV; listed as Homo sapiens) [compound 514] | “+++” (≥50 = +++) |
| 531 (YTLPIASSIRL; listed as Homo sapiens) [compound 531] | “+++” (≥50 = +++) |
| 582 (TLCDVILMV; listed as Homo sapiens) [compound 582] | “+++” (≥50 = +++) |
| 521 (MLLTKLPTI; listed as Homo sapiens) [compound 521] | “+++” (≥50 = +++) |
| 134 (YLQELIFSV; listed as Homo sapiens) [compound 134] | “+++” (≥50 = +++) |
| 23 (VLLDDIFAQL; listed as Homo sapiens) [compound 23] | “+++” (≥50 = +++) |
| 635 (SLDSTLHAV; listed as Homo sapiens) [compound 635] | “+++” (≥50 = +++) |
| 385 (SLLEQGLVEA; listed as Homo sapiens) [compound 385] | “++” (≥20% = ++) |
| 358 (ALDEYTSEL; listed as Homo sapiens) [compound 358] | “++++” (≥75% = ++++) |
| 223 (ALLENIALYL; listed as Homo sapiens) [compound 223] | “+++” (≥50 = +++) |
| 266 (KITDTLIHL; listed as Homo sapiens) [compound 266] | “+++” (≥50 = +++) |
| 81 (FLFSQLQYL; listed as Homo sapiens) [compound 81] | “++” (≥20% = ++) |
| 451 (LLLLDTVTMQV; listed as Homo sapiens) [compound 451] | “++” (≥20% = ++) |
| 400 (SLLTEQDLWTV; listed as Homo sapiens) [compound 400] | “++” (≥20% = ++) |
| 10 (FLATFPLAAV; listed as Homo sapiens) [compound 10] | “++++” (≥75% = ++++) |
| 504 (GLSDGNPSL; listed as Homo sapiens) [compound 504] | “++” (≥20% = ++) |
| 168 (KILDADIQL; listed as Homo sapiens) [compound 168] | “++++” (≥75% = ++++) |
| 241 (SLVEVNPAYSV; listed as Homo sapiens) [compound 241] | “+++” (≥50 = +++) |

| Substance | Peptide exchange |
| --- | --- |
| 430 (HLYSSIEHLTT; listed as Homo sapiens) [compound 430] | “+++” (≥50 = +++) |
| 538 (LLLAHIIAL; listed as Homo sapiens) [compound 538] | “++” (≥20% = ++) |
| 377 (FLLDSSASV; listed as Homo sapiens) [compound 377] | “++” (≥20% = ++) |
| 573 (ILVANAIVGV; listed as Homo sapiens) [compound 573] | “+++” (≥50 = +++) |
| 1 (SLMEPPAVLLL; listed as Homo sapiens) [compound 1] | “+++” (≥50 = +++) |
| 551 (KLYESLLPFA; listed as Homo sapiens) [compound 551] | “+++” (≥50 = +++) |
| 576 (ILLNNSGQIKL; listed as Homo sapiens) [compound 576] | “++++” (≥75% = ++++) |
| 387 (ALFQATAEV; listed as Homo sapiens) [compound 387] | “++++” (≥75% = ++++) |
| 88 (FLLVGDLMAV; listed as Homo sapiens) [compound 88] | “+++” (≥50 = +++) |
| 561 (YLQLTQSEL; listed as Homo sapiens) [compound 561] | “+++” (≥50 = +++) |
| 381 (FIDEAYVEV; listed as Homo sapiens) [compound 381] | “++” (≥20% = ++) |
| 171 (LLLPLQILL; listed as Homo sapiens) [compound 171] | “+++” (≥50 = +++) |
| 77 (ILVEADGAWVV; listed as Homo sapiens) [compound 77] | “++++” (≥75% = ++++) |
| 549 (AMLENASDIKL; listed as Homo sapiens) [compound 549] | “+++” (≥50 = +++) |
| 601 (SAFPFPVTV; listed as Homo sapiens) [compound 601] | “+++” (≥50 = +++) |
| 550 (FLYDEIEAEVNL; listed as Homo sapiens) [compound 550] | “+++” (≥50 = +++) |
| 529 (LLADELITV; listed as Homo sapiens) [compound 529] | “+++” (≥50 = +++) |
| 106 (LLYDAVHIVSV; listed as Homo sapiens) [compound 106] | “+++” (≥50 = +++) |
| 234 (ALMEDTGRQML; listed as Homo sapiens) [compound 234] | “++” (≥20% = ++) |
| 552 (GLLDLPFRVGV; listed as Homo sapiens) [compound 552] | “++++” (≥75% = ++++) |
| 47 (ILLSVPLLVV; listed as Homo sapiens) [compound 47] | “++” (≥20% = ++) |
| 325 (FIMPATVADATAV; listed as Homo sapiens) [compound 325] | “+++” (≥50 = +++) |
| 432 (TLIEESAKV; listed as Homo sapiens) [compound 432] | “++” (≥20% = ++) |

| Substance | Peptide exchange |
| --- | --- |
| 218 (SALEELVNV; listed as Homo sapiens) [compound 218] | “++” (≥20% = ++) |
| 555 (YVLEGLKSV; listed as Homo sapiens) [compound 555] | “+++” (≥50 = +++) |
| 335 (YSLSSVVTV; listed as Homo sapiens) [compound 335] | “+++” (≥50 = +++) |
| 193 (QLLDADGFLNV; listed as Homo sapiens) [compound 193] | “+++” (≥50 = +++) |
| 469 (YLASDEITTV; listed as Homo sapiens) [compound 469] | “+++” (≥50 = +++) |
| 547 (TLDITPHTV; listed as Homo sapiens) [compound 547] | “+++” (≥50 = +++) |
| 366 (RLLDMGETDLML; listed as Homo sapiens) [compound 366] | “+++” (≥50 = +++) |
| 205 (SLYPGTETMGL; listed as Homo sapiens) [compound 205] | “+++” (≥50 = +++) |
| 396 (ALLPDLPAL; listed as Homo sapiens) [compound 396] | “+++” (≥50 = +++) |
| 500 (SLMEDQVLQL; listed as Homo sapiens) [compound 500] | “+++” (≥50 = +++) |
| 331 (KVDTVWVNV; listed as Homo sapiens) [compound 331] | “+++” (≥50 = +++) |
| 254 (TLLAFIMEL; listed as Homo sapiens) [compound 254] | “+++” (≥50 = +++) |
| 450 (FMIDASVHPTL; listed as Homo sapiens) [compound 450] | “+++” (≥50 = +++) |
| 623 (YLVEDIQHI; listed as Homo sapiens) [compound 623] | “+++” (≥50 = +++) |
| 318 (GLINTGVLSV; listed as Homo sapiens) [compound 318] | “++” (≥20% = ++) |
| 163 (ALDEMGDLLQL; listed as Homo sapiens) [compound 163] | “+++” (≥50 = +++) |
| 541 (SMLEPVPEL; listed as Homo sapiens) [compound 541] | “+++” (≥50 = +++) |
| 55 (SLLDLETLSL; listed as Homo sapiens) [compound 55] | “++++” (≥75% = ++++) |
| 588 (SLLPLSHLV; listed as Homo sapiens) [compound 588] | “+++” (≥50 = +++) |
| 245 (SMIDDLLGV; listed as Homo sapiens) [compound 245] | “+++” (≥50 = +++) |
| 54 (SLLEQGKEPWMV; listed as Homo sapiens) [compound 54] | “+++” (≥50 = +++) |
| 379 (IMEGTLTRV; listed as Homo sapiens) [compound 379] | “++” (≥20% = ++) |
